Laboratory results: the RNAGym collection of RNA variant scans (doi:10.1073/pnas.2313332121)
Variants at the floor of the assay were thinned out.

B1: TPR 5TU (parent)
chain: GGAUCUUCUCGAUCUAACAAAAAAGACAAAUCUGCCACAAAGCUUGAGAGCAUCUUCGGAUGCAGAGGCGGCAGCCUUCGGUGGCGCGAUAGCGCCAACGUUCUCAACUAUGACACGCAAAACGCGUGCUCCGUUGAAUGGAGUUUAUCAUG

Variants of: B1
Assay: polymerase ribozyme fitness, log enrichment relative to wild type (log ratio); higher = more active; in vitro selection for triplet polymerase activity
In short: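 In triplicate, a single round of in vitro selection was run on each mutant library, PCR-built and transcribed, covering one subunit of a heterodimeric triplet polymerase ribozyme. Frozen incubation at −7 °C followed annealing with a biotinylated primer, partner subunit and triplets, and extended constructs were then gel-excised, streptavidin-captured and taken through RT-PCR. Fitness is the logarithm of genotype enrichment over wild-type enrichment, from inverse-variance-weighted replicate averages of Illumina-sequenced inputs and outputs. […] only genotypes with ≥10 input reads and ≥1 read per output were kept.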

Point of comparison: GGAUCUUCUCGAUCUAACAAAAAAGACAAAUCUGCCACAAAGCUUGAGAGCAUCUUCGUAUGCAGAGGCGGCAGCCUUCGGUGGCGUGAUAGCGCCAACGUUCUCAACUAUGACACGCAAAACGCGUGCUCCGUUGAAUGGAGUUUAUCAUG, “polymerase ribozyme fitness (log ratio)” value -0.949. Against it:
- GGAUCUUCUCGAUCUAACAAAAAAGACAAAUCUGCCACAAAGCUUGAGAGCAUCUUCGUAUGCAGAGGCGGCAGCCUUCGGUGGCGCGAUAGCGCCAACGUUCUCAACUAUGACACGCAAAACGCAUGCUCCGUUGAAUGGAGUUUAUCAUG — higher, 0.622
- GGAUCUUCUCGAUCUAACAAAAAAGACAAAUCUGCCACAAAGCUUGAGAGCAUCUUCGGCUGCAGAUGCGGCAGCAUUCGGUGGCGCGAUAGCGCUAACGUUCUCAGCUAUGACACGCAAAACGUGUGCUCCGUUGAAUGGAGUUUAUCAUG — lower, ≤ -4.2
- GGAUCUUCUCGAUCUAACAAAAAAGACAAAUCUGCCACAAAGCUUGAGAGCAUCUUCGGCUGCAGAGACGGCAGCCUUCGGUGGCGCGAUAGCGAGAACGUUCUCAACUAUGACACGCAAAACGCGUGCUCCGGUGAAGGGAGUUUAUCAUG — lower, ≤ -4.2
- GGAUCUUCUCGAUCUAACAAAAAAGACAAAUCUGCCACAAAGCUUGAGAGCAUCUUCGUAUGCAGAGGCGGCAGCCUUCGGUGGCACGAUAGCGCCAACGUUCUCAACUAUGACACGCAAAACGCGUGCUCCGUUGAAUGGAUUUUAUCAUG — lower, -3.52
- GGAUCUUCUCGAUCUAACAAAAAAGACAAAUCUGCCACAAAGCUUGAGAGCAUCUUCGUAUGCAGAGGCGGCAGCGUUCGGUGGCGCGAUAGCGCCAACGUUCUCAACUUUGACACGCAAAACCCGUGCUCCGUUGGAUGGAGUUUAUCAUG — lower, ≤ -4.2
- GGAUCUUCUCGAUCUAACAAAAAAGACAAAUCUGCCACAAAGCUUGAGAGCAUCUUCGGCUGCAGAGGCGGCAGCCUUCGGUAGUGCGAUAGCGCCAACGGUCUCAACUAUGACACGCAAAACGCGUGCUCCGUUGAAUGGAGUUUAUCAUG — lower, -3.16
- GGAUCUUCUCGAUCUAACAAAAAAGACAAAUCUGCCACAAAGCUUGAGAGCAUCUUCGUAUGCAGAGGCGGCAGCCUUAGGUGGCACGGUAGCGCCAACGUUCUCAACUAUGACACGCAAAGCGCGUGCUCCGUUGAAUGCAGUUUAUCAUG — lower, ≤ -4.2
- GGAUCUUCUCGAUCUAACAAAAAAGACAAAUCUGCCACAAAGCUUGAGAGCAUCUUCGGCUGCAGAGGCGGCAGCCUUCGUUGGCGUGAUAGCGCCAACGUUCUCAACUAUGACACGCAAAACGCGUGCUCCGUUGAAUGGAGUUUAUCAUG — lower, -2.07
- GGAUCUUCUCGAUCUAACAAAAAAGACAAAUCUGCCACAAAGCUUGAGAGCAUCUUCGUAUGCAGAGGCGGCAGCUUUCGGUUGCGCGAUAGCGCCAACGUGCUCAACUAUGACACGCAAAAAGCGUGCUCCGUUGAAUGGAGUUUAUCAUG — lower, ≤ -4.2
- GGAUCUUCUCGAUCUAACAAAAAAGACAAAUCUGCCACAAAGCUUGAGAGCAUCUUCGUAUGCAGAGGCGGCAGCCUUCGGUGGCGCUAUAGCUCCAACGUGCUCAACUAUGACACGCAAAACGCGUGCUCCGUUGAAUGGAGUUUGUCAUG — lower, ≤ -4.2
- GGAUCUUCUCGAUCUAACAAAAAAGACAAAUCUGCCACAAAGCUUGAGAGCAUCUUCGGCUGCAGAGGCGGCAGCCUUCGGUGGUGCGAUAGCGCCAACGUUCUCAACUAUGACACGCCAAACACGUGCUCCGUUGAAUGGAGUUUAUCAUG — lower, -1.25
- GGAUCUUCUCGAUCUAACAAAAAAGACAAAUCUGCCACAAAGCUUGAGAGCAUCUUCGUAUGCACAGGCGGCAGCCUUCGGUGGCGCGAUAGCGCCAACGUUCUCAACGAUGACACGCAAAACGCGUGCUCCGUUGAAUGGAGUUUAUCAUG — lower, ≤ -4.2
- GGAUCUUCUCGAUCUAACAAAAAAGACAAAUCUGCCACAAAGCUUGAGAGCAUCUUCGGCUGCAGAGGCGUCAGCCUUCGGUGGCGCGAUACCGCCAACGUUCUCAAGUAUGACACACAAAACUCGUGCUCCGUUGCAUGGAGUUUAUCAUG — lower, -4.08
- GGAUCUUCUCGAUCUAACAAAAAAGACAAAUCUGCCACAAAGCUUGAGAGCAUCUUCGUAUGCAGAGGCGGCAGCCUUCGGUGGCGCGAUAGCGCGAACGUUCUCAACUAUGACACGCAAAACGCGUGCUCCCUUGCAUGGAGUUUAUCAUG — lower, ≤ -4.2
- GGAUCUUCUCGAUCUAACAAAAAAGACAAAUCUGCCACAAAGCUUGAGAGCAUCUUCGUAUGCAGAGGCGGCAGCCUUCGGUGGCGCGAUAGCGCCAACGUUCUCAACUAUGACACGCAAAACGCGUGCUCAGUUGAAUGGAGUUUAUCAUG — lower, -2.09
- GGAUCUUCUCGAUCUAACAAAAAAGACAAAUCUGCCACAAAGCUUGAGAGCAUCUUCGGCUGCAGAGGCGGCAGCCUUCGGUGACGCGAUGGCGCCAACGUUCUCAACUAUGACAUGCAAAACGCGUGCUCCGUUGAAUGGAGUUUAUCAUG — lower, -4.11
- GGAUCUUCUCGAUCUAACAAAAAAGACAAAUCUGCCACAAAGCUUGAGAGCAUCUUCGUAUGCCGAGGCGACAGCCUUCGGUGGCGCGAUAGCGCCAACGUUCUCAACUAUGACACUCAAAACGCGUGCUCCGUUGAAUGGAGUUUAUCAUG — lower, ≤ -4.2
- GGAUCUUCUCGAUCUAACAAAAAAGACAAAUCUGCCACAAAGCUUGAGAGCAUCUUCGUAUGCAGAGGCGGCAGCCUUCGGUGGCGCGAUAGCGCCAACGUUCUCAACUAUGAUACGCAAAACGCGUGCUCCGUUGAAUGGAGUUUAUCAUG — lower, -1.62
